Measurements from paper PMC3074124.

Biological target: T1, His6-MBNL1 (human, UniProt Q9NR56-5 1-382)
T1 sequence: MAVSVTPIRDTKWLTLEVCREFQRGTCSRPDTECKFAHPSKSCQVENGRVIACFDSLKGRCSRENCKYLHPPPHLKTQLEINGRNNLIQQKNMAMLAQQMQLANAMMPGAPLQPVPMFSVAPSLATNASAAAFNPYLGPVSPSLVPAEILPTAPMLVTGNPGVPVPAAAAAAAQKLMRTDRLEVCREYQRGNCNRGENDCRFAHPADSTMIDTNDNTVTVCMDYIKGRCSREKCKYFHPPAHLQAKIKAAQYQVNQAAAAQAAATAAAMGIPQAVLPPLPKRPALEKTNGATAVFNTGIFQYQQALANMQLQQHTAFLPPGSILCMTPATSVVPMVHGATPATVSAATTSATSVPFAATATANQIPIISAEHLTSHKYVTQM
Experiment: EMSA

B1: DOWN (ssRNA)
RNA: GUAUGACUCACCUGUGCGACCCCUGGUGCCUGCUCCGCGCAGGGCCGGCGGCGUGCCAGGCAGAUGCCUCGGAGAACCCAGGGGUUUCUGUGGCUUUUUGCAUGCGGCGGGCAGCUGUGCUGGAGAGCAGAUGCUUCACCAAUUCAGAAAUCCAAUGCCUUCACUCUGAAAUGAAAUCUGGGCAU
- binding result: binds
